Values quoted from earlier work as cited in patent US20030175285A1, “Molecule of pharmaceutical interest comprising at its n-terminal a glutamic acid or a glutamine in the form of a physiologically acceptable strong acid” (priority 2000, published 2003).

Conditions: in 2 months, formulated with adjuvant solution of the Montanide ISA 720 type

In the case of EEGAIVGEI, the “spontaneous cyclization to pyroglutamate” value is listed as 30%.
